In US8563520B2, “Treatment of ocular disease with inhibitors of alpha2 macroglobulin protein” (McGill University, priority 2005, dated 2013):
Like-named read-outs stand apart in the source and are kept apart here.

Test system: Rat Retina
Protocol: The following experiment was conducted in order to assess changes in gene expression induced in the retina after intraocular injection of α2 macroglobulin protein. 2 μg of α2 macroglobulin protein was intraocularly injected into the right eye of rats (n=3) and the left eye was used as a control. One rat was tested at Day 3, one rat was tested at Day 7 and one rat was tested at Day 14. Retinas were isolated and mRNA was collected. Samples from each of the rats were studied by gene microassays. Retinas were carefully dissected out to insure that only retinal mRNAs were prepared for gene microarray studies. Samples were obtained from control eyes.
Total RNA was isolated from retinal tissue using TRIZOL® (Life Technologies). RNA was then further purified using the RNAEASY® (QIAGEN®). The integrity of the RNA samples was assessed by running aliquots on RNA 6000 Nano LabChip (Agilent) using the 2100 bioanalyzer (Agilent).
Probe synthesis, hybridization and scanning were done according to Affymetrix protocol, as a service at the McGill University and Genome Quebec Innovation Centre. For the experiments shown, Rat U34 Genome Arrays (8,700 genes, Affymetrix) were used. Briefly, RNA samples were first converted to double stranded cDNA (T7-(dT)24 primer (Genset)). Then the cDNAs were purified and used to generate the biotinylated cRNA probes (Bioarray High Yield RNA transcript labeling kit (Enzo diagnostics)). An aliquot of the purified cRNA was analyzed on RNA 6000 Nano LabChip (Agilent) to verify the integrity and size distribution. Immediately after hybridization the chip was placed in the Affymetrix GeneChip Fluidics Station 400 (Affymetrix). In total, 10 low-stringency washes (63 SSPE, 0.01% Tween-20, 0.005% Antifoam) and 4 high-stringency washes (100 mM MES, 0.1 M NaCl, 0.01% Tween-20, 50 C) were performed (all reagents from Sigma). The array was then incubated with SAPE® (streptavidin/phycoerythrin stain, Molecular Probes), followed by 10 low stringency washes. The array was incubated with biotinylated anti-streptavidin antibody (Vector Laboratories) and washed again with 15 low stringency washes. Specifically bound probe was detected by placing the array in the Agilent GeneArray scanner 2500 (Affymetrix). The scanned images were analyzed using the Microarray Analysis Suite version 5.0 (Affymetrix).
The fold change was analyzed by […] data for the control eye from the data on the eye injected with α2 macroglobulin. A fold change of 2 or greater indicates upregulation. A fold of 0.5 to 2 indicates no change. A fold change of 0.5 or less indicates downregulation.

[1] = gene Thyroid hormone receptor interactor 12 (1380803_at)
[2] = gene Transcribed locus (1381100_at)
[3] = gene Transcribed locus (1382211_at)
[4] = gene Transcribed locus (1382368_at)
[5] = gene Transcribed locus (1382510_at)
[6] = gene Transcribed locus (1384014_at)
[7] = gene Transcribed locus (1385552_at)
[8] = gene Transcribed locus (1391757_at)
[9] = gene Transcribed locus (1392155_at)
[10] = gene Transcribed locus (1392675_at)
[11] = gene Transcribed locus (1395390_at)
[12] = gene Transcribed locus (1397883_at)
[13] = gene actin related protein 2/3 complex, subunit 1B (1386925_at)
[14] = gene argininosuccinate synthetase (1370964_at)
[15] = gene ash1 (absent, small, or homeotic)-like (Drosophila) (predicted) (1382862_at)
[16] = gene cold inducible RNA binding protein (1382809_at)
[17] = gene complement component 1, s subcomponent (1387893_at)
[18] = gene complement component 3 (1368000_at)
[19] = gene complement component 4a (1370892_at)

B1: α2m: α2 macroglobulin protein injected intraocularly into normal rat eyes (protein, UniProt P06238 28-1472, looked up)
Alpha-2-macroglobulin: SAPQKPIYMVMVPSLLHAGTPEKACFLFSHLNETVAVRVSLESVRGNQSLFTDLVVDKDLFHCTSFTVPQSSSDEVMFFTVQVKGATHEFRRRSTVLVKKKESLVFAQTDKPIYKPGQTVRFRVVSLDESFHPLNELIPLLYIQDPKNNRIAQWQNFNLEGGLKQLSFPLSSEPTQGSYKVVIRTESGRTVEHPFSVEEFVLPKFEVRVTVPETITILEEEMNVSVCGIYTYGKPVPGRVTVNICRKYSNPSNCFGEESVAFCEKLSQQLDGRGCFSQLVKTKSFQLKRQEYEMQLDVHAKIQEEGTGVEETGKGLTKITRTITKLSFVNVDSHFRQGIPFVGQVLLVDGRGTPIPYETIFIGADEANLYINTTTDKHGLARFSINTDDIMGTSLTVRAKYKDSNACYGFRWLTEENVEAWHTAYAVFSPSRSFLHLESLPDKLRCDQTLEVQAHYILNGEAMQELKELVFYYLMMAKGGIVRAGTHVLPLKQGQMRGHFSILISMETDLAPVARLVLYAILPNGEVVGDTAKYEIENCLANKVDLVFRPNSGLPATRALLSVMASPQSLCGLRAVDQSVLLMKPETELSASLIYDLLPVKDLTGFPQGADQREEDTNGCVKQNDTYINGILYSPVQNTNEEDMYGFLKDMGLKVFTNSNIRKPKVCERLRDNKGIPAAYHLVSQSHMDAFLESSESPTETRRSYFPETWIWDLVVVDSAGVAEVEVTVPDTITEWKAGAFCLSNDTGLGLSPVVQFQAFQPFFVELTMPYSVIRGEAFTLKATVLNYLPTCIRVAVQLEASPDFLAAPEEKEQRSHCICMNQRHTASWAVIPKSLGNVNFTVSAEALNSKELCGNEVPVVPEQGKKDTIIKSLLVEPEGLENEVTFNSLLCPMGAEVSELIALKLPSDVVEESARASVTVLGDILGSAMQNTQDLLKMPYGCGEQNMVLFAPNIYVLDYLNETQQLTQEIKTKAIAYLNTGYQRQLNYKHRDGSYSTFGDKPGRNHANTWLTAFVLKSFAQARKYIFIDEVHITQALLWLSQQQKDNGCFRSSGSLLNNAMKGGVEDEVTLSAYITIALLEMSLPVTHPVVRNALFCLDTAWKSARGGAGGSHVYTKALLAYAFALAGNQDTKKEILKSLDEEAVKEEDSVHWTRPQKPSVSVALWYQPQAPSAEVEMTAYVLLAYLTTEPAPTQEDLTAAMLIVKWLTKQQNSHGGFSSTQDTVVALHALSKYGSATFTRAKKAAQVTIHSSGTFSTKFQVNNNNQLLLQRVTLPTVPGDYTVKVTGEGCVYLQTSLKYSVLPREEEFPFTVVVQTLPGTCEDPKAHTSFQISLNISYTGSRSESNMAIADVKMVSGFIPLKPTVKMLERSVHVSRTEVSNNHVLIYLDKVSNQTVNLSFTVQQDIPIRDLKPAVVKVYDYYEKDEFAVAKYSAPCSTDYGNA
[1]
  Fold Change (α2m vs normal) Day 3: 0.3
  Fold Change (α2m vs normal) Day 7: 0.4
[2]
  Fold Change (α2m vs normal) Day 3: 0.4
  Fold Change (α2m vs normal) Day 7: 0.3
  Fold Change (α2m vs normal) Day 14: 5.4
[3]
  Fold Change (α2m vs normal) Day 3: 0.3
  Fold Change (α2m vs normal) Day 7: 4.2
[4]
  Fold Change (α2m vs normal) Day 3: 0.4
  Fold Change (α2m vs normal) Day 7: 0.2
  Fold Change (α2m vs normal) Day 14: 2.7
[5]
  Fold Change (α2m vs normal) Day 3: 0.4
  Fold Change (α2m vs normal) Day 7: 0.3
[6]
  Fold Change (α2m vs normal) Day 3: 0.5
  Fold Change (α2m vs normal) Day 7: 4.2
  Fold Change (α2m vs normal) Day 14: 2.0
[7]
  Fold Change (α2m vs normal) Day 3: 0.5
  Fold Change (α2m vs normal) Day 7: 0.3
[8]
  Fold Change (α2m vs normal) Day 3: 0.5
  Fold Change (α2m vs normal) Day 7: 0.2
  Fold Change (α2m vs normal) Day 14: 2.0
[9]
  Fold Change (α2m vs normal) Day 3: 2.4
  Fold Change (α2m vs normal) Day 7: 16.6
[10]
  Fold Change (α2m vs normal) Day 3: 0.4
  Fold Change (α2m vs normal) Day 7: 0.3
[11]
  Fold Change (α2m vs normal) Day 3: 0.4
  Fold Change (α2m vs normal) Day 7: 4.1
[12]
  Fold Change (α2m vs normal) Day 3: 2.4
  Fold Change (α2m vs normal) Day 7: 17.0
[13]
  Fold Change (α2m vs normal) Day 3: 2.7
  Fold Change (α2m vs normal) Day 7: 2.0
[14]
  Fold Change (α2m vs normal) Day 3: 0.4
  Fold Change (α2m vs normal) Day 7: 2.4
[15]
  Fold Change (α2m vs normal) Day 3: 0.5
  Fold Change (α2m vs normal) Day 7: 0.2
Gene cadherin 1 (1386947_at)
  Fold Change (α2m vs normal) Day 3: 0.4
  Fold Change (α2m vs normal) Day 7: 9.6
  Fold Change (α2m vs normal) Day 14: 2.4
[16]
  Fold Change (α2m vs normal) Day 3: 0.4
  Fold Change (α2m vs normal) Day 7: 0.1
  Fold Change (α2m vs normal) Day 14: 2.2
[17]
  Fold Change (α2m vs normal) Day 3: 6.0
  Fold Change (α2m vs normal) Day 7: 3.6
[18]
  Fold Change (α2m vs normal) Day 3: 8.4
  Fold Change (α2m vs normal) Day 7: 2.1
[19]
  Fold Change (α2m vs normal) Day 3: 2.2
  Fold Change (α2m vs normal) Day 7: 2.3
Gene complement factor B (1389470_at)
  Fold Change (α2m vs normal) Day 3: 3.9
